The record followed here is US20230212319A1, “NOVEL ANTIGEN BINDING DOMAINS AND SYNTHETIC ANTIGEN RECEPTORS INCORPORATING THE SAME” (University of Southern California, priority 2020, published 2023).

The test system of this test is RAJI cells. Description: JNG assay, co-culture with RAJI cells. Format: cell-based. Particulars: JNG cells expressing construct, co-culture with Raji. The method in brief: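 Jurkat-NFAT-GFP (JNG) cells stably expressing SAR constructs via lentiviral transduction and puromycin/blasticidin selection were cocultured with target cells at E:T ~1:2 for ~4–18 h. NFAT-driven GFP was measured by FACS versus parental JNG cells; scores +/- to 5+ denote ~5–50% GFP-positive cells.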

B1: 22223 (protein)
chain: MALPVTALLLPLALLLHAARPDIQMTQSPSSLSASVGDRVTITCKASDHINNWLAWYQQKPGQAPKLLIYGATTLETGVPSRFSGSGSGTDYTLTISSLQPEDFATYYCQQSWNTPWTFGQGTKLEIKRLEDLKNVFPPEVAVFEPSEAEISHTQKATLVCLATGFYPDHVELSWWVNGKEVHSGVCTDPQPLKEQPALNDSRYCLSSRLRVSATFWQNPRNHFRCQVQFYGLSENDEWTQDRAKPVTQIVSAEAWGRADCGFTSESYQQGVLSATILYEILLGKATLYAVLVSALVLMAMVKRKDSRGRAKRSGSGATNFSLLKQAGDVEENPGPTSATMDWIWRILFLVGAATGAHSGPQLGPYELWELSHGSGPLGIAGIFEQVQLQQPGAELVKPGASVKMSCKASGYAFSSYWINWMKQKPGQGLEWIGQIYPGDGDTNYNGKFKGRATLTADTSSSTAYMQLSSLTSEDSAVYFCARSITTVVGCAMDYWGQGTSVTVSSTRIQNPDPAVYQLRDSKSSDKSVCLFTDFDSQTNVSQSKDSDVYITDKCVLDMRSMDFKSNSAVAWSNKSDFACANAFNNSIIPEDTFFPSPESSCDVKLVEKSFETDTNLNFQNLSVIGFRILLLKVAGFNLLMTLRLWSSRAKRSGSGVKQTLNFDLLKLAGDVESNPGPSRGHMTEYKPTVRLATRDDVPRAVRTLAAAFADYPATRHTVDPDRHIERVTELQELFLTRVGLDIGKVWVADDGAAVAVWTTPESVEAGAVFAEIGPRMAELSGSRLAAQQQMEGLLAPHRPKEPAWFLATVGVSPDHQGKGLGSAVVLPGVEAAERAGVPAFLETSAPRNLPFYERLGFTVTADVEVPEGPRTWCMTRKPGA
In the case of B1, the “NFAT-GFP ASSAY: Raji” value is “Raji (3+) (refer to approximately 5%, 10%, 20%, 30%, 40% and 50% GFP positive cells)”.

B2: 22222 (protein)
chain: MALPVTALLLPLALLLHAARPACPQLGPYELWELSHGTGAVVRGAEFDIQMTQSPSSLSASVGDRVTITCKASDHINNWLAWYQQKPGQAPKLLIYGATTLETGVPSRFSGSGSGTDYTLTISSLQPEDFATYYCQQSWNTPWTFGQGTKLEIKRLEDLKNVFPPEVAVFEPSKAEIAHTQKATLVCLATGFYPDHVELSWWVNGKEVHSGVCTDPQPLKEQPALNDSRYCLSSRLRVSATFWQNPRNHFRCQVQFYGLSENDEWTQDRAKPVTQIVSAEAWGRADCGITSASYHQGVLSATILYEILLGKATLYAVLVSALVLMAMVKRKDSRGRAKRSGSGATNFSLLKQAGDVEENPGPTSATMDWIWRILFLVGAATGAHSGPQVQLQESGGGLAQAGGSLRLSCAASGRTFSMGWFRQAPGKEREFVAAITYSGGSPYYASSVRGRFTISRDNAKNTVYLQMNSLKPEDTAVYYCAANPTYGSDWNAENWGQGTQVTVSSGSGGGGSGGGGSGGGGSFEQVQLQQPGAELVKPGASVKMSCKASGYAFSSYWINWMKQKPGQGLEWIGQIYPGDGDTNYNGKFKGRATLTADTSSSTAYMQLSSLTSEDSAVYFCARSITTVVGCAMDYWGQGTSVTVSSTRIQNPDPAVYQLRDSKSSDKSVCLFTDFDSQTNVSQSKDSDVYITDKCVLDMRSMDFKSNSAVAWSNKSDFACANAFNNSIIPEDTFFPSSDVPCDVKLVEKSFETDTNLNFQNLSVIGFRILLLKVAGFNLLMTLRLWSSRAKRSGSGVKQTLNFDLLKLAGDVESNPGPSRGHMTEYKPTVRLATRDDVPRAVRTLAAAFADYPATRHTVDPDRHIERVTELQELFLTRVGLDIGKVWVADDGAAVAVWTTPESVEAGAVFAEIGPRMAELSGSRLAAQQQMEGLLAPHRPKEPAWFLATVGVSPDHQGKGLGSAVVLPGVEAAERAGVPAFLETSAPRNLPFYERLGFTVTADVEVPEGPRTWCMTRKPGA
Consider B2, for which the “NFAT-GFP ASSAY: Raji” value was “Raji (2+) (refer to approximately 5%, 10%, 20%, 30%, 40% and 50% GFP positive cells)”.

B3: 22228 (protein)
chain: MALPVTALLLPLALLLHAARPDIQMTQSPSSLSASVGDRVTITCKASDHINNWLAWYQQKPGQAPKLLIYGATTLETGVPSRFSGSGSGTDYTLTISSLQPEDFATYYCQQSWNTPWTFGQGTKLEIKRLEDLKNVFPPEVAVFEPSEAEISHTQKATLVCLATGFYPDHVELSWWVNGKEVHSGVCTDPQPLKEQPALNDSRYCLSSRLRVSATFWQNPRNHFRCQVQFYGLSENDEWTQDRAKPVTQIVSAEAWGRADCGFTSESYQQGVLSATILYEILLGKATLYAVLVSALVLMAMVKRKDSRGRAKRSGSGATNFSLLKQAGDVEENPGPTSATMDWIWRILFLVGAATGAHSGPQDKLTQWPKWLEGSGGGGSGGGGSGGGGSFEQVQLQQPGAELVKPGASVKMSCKASGYAFSSYWINWMKQKPGQGLEWIGQIYPGDGDTNYNGKFKGRATLTADTSSSTAYMQLSSLTSEDSAVYFCARSITTVVGCAMDYWGQGTSVTVSSTRIQNPDPAVYQLRDSKSSDKSVCLFTDFDSQTNVSQSKDSDVYITDKCVLDMRSMDFKSNSAVAWSNKSDFACANAFNNSIIPEDTFFPSPESSCDVKLVEKSFETDTNLNFQNLSVIGFRILLLKVAGFNLLMTLRLWSSRAKRSGSGVKQTLNFDLLKLAGDVESNPGPSRGHMTEYKPTVRLATRDDVPRAVRTLAAAFADYPATRHTVDPDRHIERVTELQELFLTRVGLDIGKVWVADDGAAVAVWTTPESVEAGAVFAEIGPRMAELSGSRLAAQQQMEGLLAPHRPKEPAWFLATVGVSPDHQGKGLGSAVVLPGVEAAERAGVPAFLETSAPRNLPFYERLGFTVTADVEVPEGPRTWCMTRKPGA
For the molecule B3, the “NFAT-GFP ASSAY: Raji” value is “Raji (2+) (refer to approximately 5%, 10%, 20%, 30%, 40% and 50% GFP positive cells)”.

B4: 22227 (protein)
chain: MALPVTALLLPLALLLHAARPDIQMTQSPSSLSASVGDRVTITCKASDHINNWLAWYQQKPGQAPKLLIYGATTLETGVPSRFSGSGSGTDYTLTISSLQPEDFATYYCQQSWNTPWTFGQGTKLEIKRLEDLKNVFPPEVAVFEPSEAEISHTQKATLVCLATGFYPDHVELSWWVNGKEVHSGVCTDPQPLKEQPALNDSRYCLSSRLRVSATFWQNPRNHFRCQVQFYGLSENDEWTQDRAKPVTQIVSAEAWGRADCGFTSESYQQGVLSATILYEILLGKATLYAVLVSALVLMAMVKRKDSRGRAKRSGSGATNFSLLKQAGDVEENPGPTSATMDWIWRILFLVGAATGAHSGPQLGPYELWELSHGSALRRLLGLFGFEQVQLQQPGAELVKPGASVKMSCKASGYAFSSYWINWMKQKPGQGLEWIGQIYPGDGDTNYNGKFKGRATLTADTSSSTAYMQLSSLTSEDSAVYFCARSITTVVGCAMDYWGQGTSVTVSSTRIQNPDPAVYQLRDSKSSDKSVCLFTDFDSQTNVSQSKDSDVYITDKCVLDMRSMDFKSNSAVAWSNKSDFACANAFNNSIIPEDTFFPSPESSCDVKLVEKSFETDTNLNFQNLSVIGFRILLLKVAGFNLLMTLRLWSSRAKRSGSGVKQTLNFDLLKLAGDVESNPGPSRGHMTEYKPTVRLATRDDVPRAVRTLAAAFADYPATRHTVDPDRHIERVTELQELFLTRVGLDIGKVWVADDGAAVAVWTTPESVEAGAVFAEIGPRMAELSGSRLAAQQQMEGLLAPHRPKEPAWFLATVGVSPDHQGKGLGSAVVLPGVEAAERAGVPAFLETSAPRNLPFYERLGFTVTADVEVPEGPRTWCMTRKPGA
Consider B4, for which the “NFAT-GFP ASSAY: Raji” value was “Raji (4+) (refer to approximately 5%, 10%, 20%, 30%, 40% and 50% GFP positive cells)”.
